Results taken from patent US20180086841A1 (Merck Sharp & Dohme, published 2018).

Assays:
Experiment in all cases: flow cytometry on CHO-K1 transfectants, left sub-column
Q41A = biological target: T1, Q41A
T1 construct: also called hCD27 Q41A
T1 receptor chain: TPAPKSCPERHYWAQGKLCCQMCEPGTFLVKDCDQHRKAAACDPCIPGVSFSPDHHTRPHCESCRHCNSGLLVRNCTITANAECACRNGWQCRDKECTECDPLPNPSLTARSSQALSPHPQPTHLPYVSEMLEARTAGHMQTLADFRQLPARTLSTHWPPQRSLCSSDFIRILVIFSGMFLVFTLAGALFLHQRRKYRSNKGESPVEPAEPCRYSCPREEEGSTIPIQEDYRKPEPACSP
Description: (§1) The hCD27 variants that were tested are listed. Amino acids correspond to the UniProt P26842-1 sequence. Amino acids 1-20 constitute the signal peptide. Binding is expressed as the geometric mean of the FITC signal, relative to antibody binding to hCD27, which was set at 100%.
(§2) The ability of several anti-hCD27 antibodies to bind to a series of hCD27 alanine mutants was determined using CHO-K1 cells, transiently transfected pCI-neo empty vector, pCI-neo.hCD27 and several pCI-neo.CD27Ala mutant constructs.
(§3) Detached cells were transferred to 96 wells round-bottomed well plates at approximately 1.2×10⁵ cells/well. After spinning down the cells, discarding the supernatants and re-suspending the cells in the residual volume, the primary antibodies were added and incubated for 30 minutes at 4° C. Cells were washed three times with DPBS/BSA 1%, followed by centrifugation, discarding of the supernatants and re-suspension in the residual volume. […] After washing once, antibody binding was detected using the HTS plate reader (FACS Canto II) and FlowJo software for data analysis. Debris, dead cells and doublets were excluded from the analysis. Binding was expressed as the geometric mean of the FITC signal, relative to antibody binding to hCD27, which was set at 100%.

R93A = biological target: T2, R93A
T2 construct: also called hCD27 R93A
T2 receptor chain: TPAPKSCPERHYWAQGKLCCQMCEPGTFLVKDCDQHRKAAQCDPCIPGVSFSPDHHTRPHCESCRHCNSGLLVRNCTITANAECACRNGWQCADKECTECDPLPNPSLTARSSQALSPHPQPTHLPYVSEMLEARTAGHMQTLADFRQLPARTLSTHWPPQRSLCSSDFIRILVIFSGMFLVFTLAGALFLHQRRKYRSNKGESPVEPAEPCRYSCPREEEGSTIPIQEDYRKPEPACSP
Description: as §1, §2, §3

K17A = biological target: T3, K17A
T3 construct: also called hCD27 K17A
T3 receptor chain: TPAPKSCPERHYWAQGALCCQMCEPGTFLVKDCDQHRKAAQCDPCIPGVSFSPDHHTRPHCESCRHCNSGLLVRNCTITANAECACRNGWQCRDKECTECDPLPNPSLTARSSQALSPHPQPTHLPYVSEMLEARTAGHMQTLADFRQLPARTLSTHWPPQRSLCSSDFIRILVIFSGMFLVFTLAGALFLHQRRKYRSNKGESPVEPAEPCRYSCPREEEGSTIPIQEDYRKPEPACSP
Description: as §1, §2, §3

binding, WT hCD27 = 100 (GM FITC) (Q41A): 108%
binding, WT hCD27 = 100 (GM FITC) (R93A): 125%
binding, WT hCD27 = 100 (GM FITC) (K17A): 103%
B1: hCD27.131A (mouse parental 131A) (antibody, mouse IgG1, V domains shown)
VH: QIQLVQSGPELKKPGETVKISCKASGYTFTNYGMNWVKQAPGKGLKWMGWINTNTGEPTYAEEFKGRFAFSLETSATTAYLQINNLKNEDTATYFCAREGDAMDYWGQGTSVTVSS
VL: QIVLTQSPAIMSASPGEKVTMTCSASSSVSYMHWYQQKSGTSPKRWIYDTSKLASGVPARFSGSGSGTSYSLTISSMEAEDAATYYCQQWNSYPFTFGSGTKLEIK
notes: Mouse IgG1 antibody; also called mouse hCD27.131A
